Results: IntAct's records for PubMed 17213653

B1: Protein RCR1 (Saccharomyces cerevisiae), P38212 (parent)
chain: MGLISYENEAINEVKKADNHHVSKFVTSYYGPSSSSWQSGIWILFVLFVAAVILIILFTFVANRRRRRMGRAPIRGTAWLTPPSYRQSQQQYTGTVQQRTDDYVPEYTETANEHDLGYYDQRGEFHPNDKAAYVAPPPLVQECSSESVNSLERPPAAVVHQANSLDTDYGLTRPSNGRVPAVSDTVEQLERLPGGTTTQEINPPERAKVNARS
partner: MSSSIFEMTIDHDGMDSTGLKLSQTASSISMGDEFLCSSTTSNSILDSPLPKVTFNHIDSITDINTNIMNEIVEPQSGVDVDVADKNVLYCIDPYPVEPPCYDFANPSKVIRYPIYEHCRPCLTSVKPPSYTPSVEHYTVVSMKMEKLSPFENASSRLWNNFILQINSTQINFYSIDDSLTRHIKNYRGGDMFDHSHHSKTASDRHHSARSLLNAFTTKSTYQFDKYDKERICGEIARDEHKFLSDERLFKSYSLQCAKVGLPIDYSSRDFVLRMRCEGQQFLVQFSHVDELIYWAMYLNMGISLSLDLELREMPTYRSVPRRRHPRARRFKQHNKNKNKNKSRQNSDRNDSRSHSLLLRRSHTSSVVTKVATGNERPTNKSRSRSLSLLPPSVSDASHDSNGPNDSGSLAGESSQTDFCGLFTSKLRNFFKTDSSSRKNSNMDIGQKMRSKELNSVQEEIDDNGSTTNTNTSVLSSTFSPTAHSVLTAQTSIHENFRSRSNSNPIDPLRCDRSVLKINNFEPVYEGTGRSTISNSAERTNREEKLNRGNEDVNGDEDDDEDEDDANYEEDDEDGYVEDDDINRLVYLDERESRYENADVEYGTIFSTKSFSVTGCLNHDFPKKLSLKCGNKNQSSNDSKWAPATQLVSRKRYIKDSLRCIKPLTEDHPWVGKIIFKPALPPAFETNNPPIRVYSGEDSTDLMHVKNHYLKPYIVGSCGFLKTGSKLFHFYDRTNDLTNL
B2: Protein RCR1 (Saccharomyces cerevisiae), P38212 (parent)
chain: B1 chain

Variants of: B1
Details: with yno4_yeast yno4, P53907

Variant | effect of a mutation on the interaction
P82Q;P83A | disrupting interaction

Variants of: B2
Details: with rsp5_yeast RSP5, P39940
rsp5_yeast RSP5, P39940, sequence (P39940 whole entry): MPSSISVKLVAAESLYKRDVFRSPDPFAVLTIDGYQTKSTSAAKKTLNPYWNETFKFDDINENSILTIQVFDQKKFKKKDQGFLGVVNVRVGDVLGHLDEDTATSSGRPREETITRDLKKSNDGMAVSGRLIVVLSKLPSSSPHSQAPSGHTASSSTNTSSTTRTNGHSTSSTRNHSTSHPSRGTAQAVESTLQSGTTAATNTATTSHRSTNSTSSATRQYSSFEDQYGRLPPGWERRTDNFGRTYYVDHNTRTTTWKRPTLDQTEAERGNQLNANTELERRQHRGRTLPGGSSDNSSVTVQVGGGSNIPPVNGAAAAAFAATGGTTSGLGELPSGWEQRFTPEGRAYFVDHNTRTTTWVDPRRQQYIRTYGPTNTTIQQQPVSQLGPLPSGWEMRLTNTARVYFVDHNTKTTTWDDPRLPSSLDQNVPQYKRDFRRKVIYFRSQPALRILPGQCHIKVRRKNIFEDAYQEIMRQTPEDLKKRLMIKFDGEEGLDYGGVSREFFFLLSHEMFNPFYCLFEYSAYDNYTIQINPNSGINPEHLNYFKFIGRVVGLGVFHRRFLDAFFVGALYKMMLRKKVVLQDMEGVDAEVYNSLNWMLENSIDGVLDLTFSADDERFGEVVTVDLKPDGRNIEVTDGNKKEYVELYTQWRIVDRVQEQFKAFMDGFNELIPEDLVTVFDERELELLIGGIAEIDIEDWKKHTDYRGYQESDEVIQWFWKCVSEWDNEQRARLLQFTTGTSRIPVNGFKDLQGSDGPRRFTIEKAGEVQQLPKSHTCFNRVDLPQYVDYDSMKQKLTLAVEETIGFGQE

Variant | effect of a mutation on the interaction
P82Q;P83A | decreasing interaction
P105A | disrupting interaction

Variants of: B2
Details: with rsp5_yeast RSP5, P39940
Remark: another data set of the same source

Variant | effect of a mutation on the interaction
P82Q;P83A;P105A | disrupting interaction
P105A | decreasing interaction
